Laboratory results as given in PMC8217507 (Scientific Reports, 2021).

B1: HuMAb 3G9 (antibody, V domains shown)
VH: EVQLLDSGGGLVQPGGSLRLSCAASGFTFNDYAMTWVRQAPGKGLEWVSTISGSGDGTYYQESLKGRFTISRDNSKNTLYLLMSSLRVDDTAVYYCAKLFGVGDSDGYWGQGTLVTVSS
VL: QAVVTQEPSLTVSPGGTVTLTCGSSTGAVTSDHYFYWFQQKPGQAPRTLIYQTTNKHPWTPARFSGSLLGGKAALTLSGAQPEDEAEYYCLLSYGGGRPVFGGGTKLTVL
notes: also called 3G9-original; 3G9-Original
B2: HuMAb 1C3 (antibody, V domains shown)
VH: EVQLVESGGGLVQPGGSLRLSCAASGFTFSDHYIDWVRQAPGKGLEWVGRTSNRANSYTSEYAASVKGRFTISRDDSKNSVYLQMNSLKTEDTAVYFCARDSGWYDFWGQGTLVTVSS
VL: ALTQPASVSGSPGQSITISCTGPSRDLGANNYVSWYQQHPGKAPKLLIYDINNRPSGVPDRFSGSRSGNTASLTISGLQADDEADYYCSSYTRSRTRVFGGGTKLTVL
B3: HuMAb 1E5 (antibody, V domains shown)
VH: QVQLVESGGGVVQPGKSLRVSCAASGFIFSSYGMHWVRQAPGKGLEWVAVISYDGRYKFYADSVKGRFTISRDDSRSTLYLQMNSLRSDDTAVYYCARGRPYIGGDYEYDYFYGMDVWGQGTTVIVSS
VL: IVMTQTPLSSPVTLGQPASISCRSSQSLVHSDGNTYLNWLQQRPGQPPRLLIYNISNRFSGVPDRFSGSGAGTDFTLKINRVEAEDVGVYYCMQATHFPYSFGQGTKLEIK
B4: HuMAb 3E1 (antibody, V domains shown)
VH: EVQLLESGGGLVQPGGSLRLSCAASGFTFSRFAMTWVRQAPGKGLEWVSAISGSGGSTFYADSVKGRFTISRDNSKNTLYLQMNSLRAEDTAVYYCVSLGDAWLLYWTPWGQGSLVTVSS
VL: DVVMTQSPLSLPVTLGQPASISCRSSQSLVHGDGNTYLNWFQQRPGQSPRRLIYNVSNRDPGVPDRFSGSGSGTDFTLKISWVEAEDVGVYYCMQATHLPPTFGGGTKVEI

molecular target: T1, DENV2 (strain 16681) prM-E, wild type (Dengue virus type 2, strain 16681, UniProt P29990); test: flow cytometry on cells
T1 construct: also called wild-type prM-E; DENV-2 prM-E; source: HEK-293T, transfected, in fixed cells

Row | Binder | binding result
1 | B1 | binds
2 | B2 | binds
3 | B3 | binds
4 | B4 | binds

molecular target: E protein of DENV-2 Indonesian isolate (cosmopolitan genotype, Surabaya) (Dengue virus type 2, cosmopolitan …, UniProt P14340, strain); test: cell-based or functional assay

Row | Binder | NT50, neutralization of DENV-2 (Indonesian isolate), Vero cells
5 | B1 | 0.02 µg/mL
6 | B2 | 0.12 µg/mL
7 | B3 | 0.69 µg/mL
8 | B4 | 0.05 µg/mL
